# In the supplement of paper PMC10126150:
# ± gives the standard deviation of the averaged measurements.
# Test system: ATP
# Assay: switch fluorescence ratio, 500 uM ATP over buffer (Cy3 cluster intensity, sum of 5 cycles each) (fold (ratio)); higher = stronger signal-on switching upon ATP binding; sequences stand for … in TCGTCGGCAGCGTCAGATGTGTATAAGAGACAGTTTTTTTTTTTTTTTTTTTTTTTTT…TC
# Conditions: aptamer strand: ATP DNA aptamer (quencher-CACCTGGGGGAGTATTGCGGAGGAAGG + anchor), 100 nM annealed; ATP concentration: 500 uM
# Outline: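 Cy3-labelled switching-strand clusters on a modified Illumina MiSeq flow-cell were annealed to 100 nM quencher-labelled ATP aptamer and imaged first in selection buffer, then after 15 min with 500 uM ATP at 22 °C. NaOH stripping and re-annealing separated each of five buffer/ATP cycles, and clusters outside 100-1000 RFU were excluded. The fluorescence ratio sums target-cycle Cy3 intensity over buffer-cycle Cy3 intensity per cluster and averages it per switch-domain sequence.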
# 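Also: ATP exposure 15 min at 22 °C before imaging.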
row,Sequence,switch fluorescence ratio
1,AAATTTTTGC,1.05 ± 0.015
2,GATGTAGTAT,0.982 ± 0.011
3,GGCTACTGAG,1.08 ± 0.066
4,TCGGACGACC,1.15 ± 0.12
5,TTACATATCT,1.03 ± 0.0043
6,TTCGAAGGCT,0.995 ± 0.017
7,TTCCGGGTGT,1.66 ± 0.75
8,AGGGGGCTGC,0.995 ± 0.023
9,ATCATTTTTA,1.01 ± 0.02
10,TGGTAGGATG,0.964 ± 0.05
11,ACGAAAATGG,1.05 ± 0.062
12,GAATCAGTGT,1 ± 0.022
13,CAATTCATTA,1.02 ± 0.02
14,AGATTGAGCG,1 ± 0.019
15,GCGTACTGTG,0.994 ± 0.022
16,AAGTTACTAC,1.06 ± 0.027
17,AACAATTATA,1.011 ± 0.0078
18,TCGAGATTAT,1.01 ± 0.027
19,GCCTTGGGAA,1.02 ± 0.028
20,CTGTGGTTGG,0.981 ± 0.011
21,CAGTGGTTGG,1.01 ± 0.013
22,ATTGTATAAA,1.04 ± 0.056
23,GTAGTGAGGG,0.982 ± 0.037

row,Sequence,switch fluorescence ratio
1,TTTACTAGCA,1.04 ± 0.11
2,AAATTTTAGG,1.034 ± 0.0013
3,TAGCTTTAAC,1.0888 ± 0.00092
4,ATATAAATGT,1.019 ± 0.0066
5,CGGCAATCCT,3.99 ± 0.15
6,TATACTTGCC,1.04 ± 0.06
7,TTCCATCGCC,1.53 ± 0.14
8,GGTTAATAGG,0.99 ± 0.013
9,TAAAGAACGT,0.942 ± 0.015
10,CAGTCGCCAG,1.02 ± 0.0024
11,TTCGGACCCG,0.976 ± 0.01
12,GTGCGACGTT,0.965 ± 0.08
13,CATGCTTGGG,0.999 ± 0.012
14,GAGGTATTTG,1.02 ± 0.037
15,TTGATCTTAG,1.02 ± 0.018
16,ATTGCGGCAC,1.05 ± 0.024
17,GTTTTTTGCG,0.999 ± 0.036
18,TCGGGGCGG,0.992 ± 0.011
19,ACGGGACGTA,1.04 ± 0.014
20,ATTGAGCAAA,1.11 ± 0.056
21,TTCTTTAAAC,0.992 ± 0.033
22,GGGCACAGAA,0.9751 ± 0.0022
23,AAGGACTAAC,1.12 ± 0.012

row,Sequence,switch fluorescence ratio
1,TTACTTTTTC,1.01 ± 0.011
2,AGCGATTTAT,1.03 ± 0.0079
3,GAGGGCACGC,0.968 ± 0.06
4,GCGGGTCGGG,0.969 ± 0.054
5,TTAGAGCTAG,1.07 ± 0.09
6,TTGAGTTGTT,1.02 ± 0.082
7,TCCAAATTAC,2.08 ± 0.064
8,CAGAATGTTA,1 ± 0.038
9,TACATGGGTT,1.01 ± 0.0092
10,GTTTAATGGA,1.01 ± 0.021
11,TCTAGCAACG,1.01 ± 0.032
12,ACTTGGATGG,0.995 ± 0.028
13,CCGGTGCGGC,1.48 ± 0.23
14,TGAGGGTCCT,1.02 ± 0.01
15,TACGGTAGCT,1.12 ± 0.051
16,TCGAGTTCAG,0.99 ± 0.021
17,GGGTGGCATT,0.957 ± 0.0032
18,AAGACAGGAA,1.03 ± 0.05
19,TGTTACGGAG,1.009 ± 0.0042
20,TTTATATTTT,1.02 ± 0.034
21,GCGGAGGGGT,1.02 ± 0.049
22,GGGATGAGAG,1 ± 0.04
23,TGGTTTATAT,1 ± 0.013

row,Sequence,switch fluorescence ratio
1,TTTTTGGTGA,0.984 ± 0.013
2,ACAGCGCTTT,1.03 ± 0.025
3,GGGGGAGTTG,0.982 ± 0.044
4,TCAGGGGTGC,1.09 ± 0.049
5,AGGACTAAAG,0.982 ± 0.013
6,ATCGAGTCTA,0.953 ± 0.017
7,ACACGTTCTT,0.996 ± 0.019
8,TATGATATGG,1.04 ± 0.025
9,CGCTGTGAAG,1.02 ± 0.012
10,ATAATTTTAC,1.07 ± 0.041
11,CATTCGAATA,1.08 ± 0.037
12,CGTTGAGGAC,1.024 ± 0.0053
13,GGTTAGGCGG,0.954 ± 0.015
14,TCGGGTAAAC,1.03 ± 0.042
15,CGGGGCTTAT,0.9909 ± 0.0014
16,CCGGGGCCTA,1.05 ± 0.026
17,GGTGTTTCGG,0.966 ± 0.014
18,GGGTAACGGT,0.9802 ± 0.0045
19,CAAGGGGGTA,0.995 ± 0.037
20,CGAGGAAAGG,0.9865 ± 0.0089
21,TGGGACTCGA,0.991 ± 0.035
22,GCATTAATG,1.03 ± 0.021
23,TCTTAGCCCT,1.01 ± 0.025

row,Sequence,switch fluorescence ratio
1,TATTAGAAGC,1.01 ± 0.046
2,TTCTTTCGTC,0.979 ± 0.021
3,AAGTGGGTTC,0.9824 ± 0.0052
4,GGGAATAGGG,1.01 ± 0.02
5,AGGGGTCCTT,0.997 ± 0.026
6,TGAATATATG,1.02 ± 0.032
7,AAGGAATTTT,1.05 ± 0.1
8,GGTGTAATAG,1.04 ± 0.036
9,TATTCATCCA,1.01 ± 0.02
10,TGTAGTTTGA,1 ± 0.012
11,GGAGTTTAGC,1.02 ± 0.029
12,TGATTAGGGT,1.05 ± 0.076
13,TAAAAATATA,1 ± 0.034
14,TTGGTTTTTT,1 ± 0.034
15,AAGTTTATAG,1.03 ± 0.0066
16,GGAGATTTTT,0.977 ± 0.044
17,CGTGGAGGGG,1.04 ± 0.013
18,TGACTTGTGC,0.976 ± 0.037
19,TTTTTCGGGA,1 ± 0.023
20,GAGAGTTAAA,0.976 ± 0.015
21,GCGGGGGGAC,1.01 ± 0.015
22,TACATATCTT,1.01 ± 0.025
23,CCAGCCCGGG,1.008 ± 0.0051

row,Sequence,switch fluorescence ratio
1,GATTAGTGTG,0.995 ± 0.05
2,AAAGTAATGG,1.04 ± 0.022
3,TTCGAAGATT,1 ± 0.051
4,TATGTTTTTA,1.02 ± 0.019
5,CCATCAAGTG,1.108 ± 0.0049
6,CCTTAGTGTT,1.03 ± 0.015
7,GGGGGTACTG,0.965 ± 0.028
8,GAAAGGCGAG,1.11 ± 0.053
9,CGAAGGCGTG,1 ± 0.018
10,TGCATTCATT,0.9937 ± 0.0093
11,CCGGGGCACT,1.34 ± 0.26
12,TGATGGGATG,1.01 ± 0.038
13,TTGGGTTTCG,1.01 ± 0.042
14,AAGTTTTGCA,1.007 ± 0.0091
15,CGAGGGGACG,1 ± 0.013
16,TAACCCTGAA,0.984 ± 0.015
17,GGATGACAGA,0.969 ± 0.01
18,GTGATATTGT,1.01 ± 0.011
19,AAATACGGTG,1.17 ± 0.16
20,GGACTATTTG,1.003 ± 0.0011
21,ATATCTTTCG,1.02 ± 0.014
22,CATAGTGCTT,0.9715 ± 0.0043
23,GCGGGGGACC,1.011 ± 0.0051

row,Sequence,switch fluorescence ratio
1,TTATCTGGGC,0.9757 ± 0.0037
2,TTGGGGACCC,1.03 ± 0.035
3,TCACTAAAAA,0.979 ± 0.12
4,TTCAGCGGGA,0.992 ± 0.019
5,TGTCTGAGGG,1 ± 0.013
6,CTCGGAATTT,1.04 ± 0.037
7,AAGGTCTTTA,1 ± 0.035
8,TTTATTTTCT,0.991 ± 0.015
9,TTGTTGTACT,1.02 ± 0.014
10,TTATCGTCGG,0.978 ± 0.04
11,GGCCCCAAAT,0.9817 ± 0.0041
12,CGTGGGGAGC,1.06 ± 0.11
13,CGAATATCAT,0.9747 ± 0.0047
14,TTGGGGATTC,0.991 ± 0.02
15,GAGGGGCCTA,0.968 ± 0.021
16,TTTGCCGGTA,1.01 ± 0.014
17,AAGGTAGGGT,1.025 ± 0.0034
18,CTTTAACGAG,0.9976 ± 0.0043
19,TCTCTTTAAT,0.997 ± 0.021
